Legend:
[1] = substrate: CSCC[C@H](N)C(=O)O; assay: purified protein, by the assay type; details: 25.0 °C
[2] = substrate: CCCC[C@H](N)C(=O)O; assay: ATP-PPi exchange assay: activation of methionine and methionine analogues by MetRS; format: biochemical, E. coli; details: other: ATP-PPi exchange, purified truncated MetRS; 25.0 °C
Method: (§1) Activation of methionine analogues by MetRS was assayed via the amino-acid-dependent ATP-PPi exchange reaction, also as previously described (Mellot, P.; Mechulam, Y.; LeCorre, D.; Blanquet, S.; Fayat, G. J. Mol. Biol. 1989, 208, 429; Blanquet, S.; Fayat, G.; Waller, J.-P. Eur. J. Biochem. 1974, 44, 343; Ghosh, G.; Pelka, H.; Schulman, L. H. Biochemistry 1990, 29, 2220). The assay, which measures the ^32P-radiolabeled ATP formed by the enzyme-catalyzed exchange of ^32P-pyrophosphate (PPi) into ATP, was conducted in 150 μl of reaction buffer (pH 7.6, 20 mM imidazole; 0.1 mM EDTA, 10 mM β-mercaptoethanol, 7 mM MgCl2, 2 mM ATP, 0.1 mg/ml BSA, and 2 mM PPi (in the form of sodium pyrophosphate with a specific activity of approximately 0.18 TBq/mole)). […] Kinetic parameters for analogue 5 were obtained with an enzyme concentration of 75 nM and analogue concentrations of 100 μM to 10 mM. Parameters for methionine were obtained by using concentrations ranging from 10 μM to 1 mM. […] Aliquots of 20 μl were removed from the reaction mixture at various time points and were quenched in 0.5 ml of a solution comprising 200 mM PPi, 7% w/v HClO4, and 3% w/v activated charcoal. The charcoal was rinsed twice with 0.5 mL of a 10 mM PPi, 0.5% HClO4 solution and was then resuspended in 0.5 mL of this solution and counted via liquid scintillation methods. Kinetic constants were calculated by nonlinear regression analysis.
(§2) Activation of methionine analogues by MetRS was assayed at 25° C. via the amino acid-dependent ATP-PPi exchange reaction, also as described in Example I (G. Ghosh, H. Pelka, L. H. Schulman, Biochemistry 1990, 29, 2220-2225). […] Kinetic parameters for analogue 5 were obtained with an enzyme concentration of 50 nM and analogue concentrations of 100 μM to 10 mM. […] Kinetic parameters for analogues 4, 7, 8, and 12 were obtained with an enzyme concentration of 50 or 75 nM and analogue concentrations ranging from 5 to 70 mM. Parameters for methionine were obtained by using concentrations ranging from 10 μM to 1 mM. […] Kinetic constants were calculated by nonlinear regression analysis.

[3] = substrate: C/C=C/CC(N)C(=O)O; assay: as above; format: biochemical, E. coli; details: 25.0 °C
Method: as §1, §2

[4] = substrate: C=CCCC(N)C(=O)O; assay: as above; format: biochemical, E. coli; details: other: ATP-PPi exchange, purified truncated MetRS; 25.0 °C
Method: as §1, §2

[5] = substrate: C#CCCC(N)C(=O)O; assay: as above; format: biochemical, E. coli; details: other: ATP-PPi exchange, purified truncated MetRS; 25.0 °C
Method: as §1, §2

[6] = other: ATP-PPi exchange, purified truncated MetRS
[7] = other: Example I text, 75 nM enzyme

B1: methionyl tRNA synthetase (MetRS) (Escherichia coli K-12) (protein)
chain: MTQVAKKILVTCALPYANGSIHLGHMLEHIQADVWVRYQRMRGHEVNFICADDAHGTPIMLKAQQLGITPEQMIGEMSQEHQTDFAGFNISYDNYHSTHSEENRQLSELIYSRLKENGFIKNRTISQLYDPEKGMFLPDRFVKGTCPKCKSPDQYGDNCEVCGATYSPTELIEPKSVVSGATPVMRDSEHFFFDLPSFSEMLQAWTRSGALQEQVANKMQEWFESGLQQWDISRDAPYFGFEIPNAPGKYFYVWLDAPIGYMGSFKNLCDKRGDSVSFDEYWKKDSTAELYHFIGKDIVYFHSLFWPAMLEGSNFRKPSNLFVHGYVTVNGAKMSKSRGTFIKASTWLNHFDADSLRYYYTAKLSSRIDDIDLNLEDFVQRVNADIVNKVVNLASRNAGFINKRFDGVLASELADPQLYKTFTDAAEVIGEAWESREFGKAVREIMALADLANRYVDEQAPWVVAKQEGRDADLQAICSMGINLFRVLMTYLKPVLPKLTERAEAFLNTELTWDGIQQPLLGHKVNPFKALYNRIDMRQVEALVEASK
notes: The fully active, truncated form of methionyl tRNA synthetase (MetRS) was purified from overnight cultures of JM101 cells carrying the plasmid pGG3; made in house; host or cells: E. coli JM101 carrying plasmid pGG3
[1]; [6]
  Km: 24.3 ± 2 µM
  kcat: 13.3 s⁻¹
  kcat/Km: 547000 M⁻¹ s⁻¹
[1]; [7]
  kcat/Km: 0.54 s^−1μM^−1
[2]
  Km: 4.12 ± 0.9 mM
  kcat: 2.15 ± 0.6 s⁻¹
  kcat/Km: 522 M⁻¹ s⁻¹
[3]; [6]
  Km: 15,675 ± 250 μM
  kcat: 1.82 ± 0.6 s⁻¹
  kcat/Km: 116 M⁻¹ s⁻¹
[3]; [7]
  kcat/Km: 1.1×10^−4 s^−1μM^−1
[4]
  Km: 4.555 ± 0.2 mM
  kcat: 1.35 ± 0.1 s⁻¹
  kcat/Km: 296 M⁻¹ s⁻¹
[5]
  Km: 2415 ± 170 µM
  kcat: 2.6 ± 0.3 s⁻¹
  kcat/Km: 1080 M⁻¹ s⁻¹

Source: patent US7723070B2, “Overexpression of aminoacyl-tRNA synthetases for efficient production of engineered proteins containing amino acid analogues” (California Institute of Technology, priority 2000, dated 2010)
